B1: huSP34.6.4 Fab-HF (Fab, V domains shown)
VH: EVQLVESGGGLVQPGGSLRLSCAASGFTFSTYAMNWVRQAPGKGLEWVGRIRSKYNNYATYYADSVKGRFTISRDNSKNTLYLQMNSLRAEDTAMYYCVRHGNFGNSYVSWFAVWGQGTLVTVSS
VL: QAVVTQEPSLTVSPGGTVTLTCGSSTGAVTTSHYANWVQQKPGQAPRGLIGGTSKRAPWTPARFSGSLLGGKAALTLSGAQPEDEAEYYCALWYSALWVFGGGTKLTVL
B2: huSP34.8.2 Fab-HF (Fab, V domains shown)
VH: EVQLVESGGGLVQPGGSLRLSCAASGFTFSDYAMNWVRQAPGKGLEWVGRTRSKYNNYATYYAASVKGRFTISRDDSKNSLYLQMNSLKTEDTAVYYCVRHGNFGHSYVSWFAVWGQGTLVTVSS
VL: QAVVTQEPSLTVSPGGTVTLTCGSSTGAVTTSNYANWVQQKPGQAPRGLIGGTSNRAPWTPARFSGSLLGGKAALTLSGAQPEDEAEYYCALWYSNLWVFGGGTKLTVL
B3: huSP34.8.1 Fab-HF (Fab, V domains shown)
VH: EVQLVESGGGLVQPGGSLRLSCAASGFTFSDYAMNWVRQAPGKGLEWVGRTRSKYNNYATYYAASVKGRFTISRDDSKNSLYLQMNSLKTEDTAVYYCVRHGNFGHSYVSWFAVWGQGTLVTVSS
VL: QAVVTQEPSLTVSPGGTVTLTCRSSTGAVTTSNYANWVQQKPGQAPRGLIGGTNKRAPWTPARFSGSLIGDKAALTLSGAQPEDEAEYYCALWYSNLWVFGGGTKLTVL
B4: huSP34.8.5 Fab-HF (Fab, V domains shown)
VH: EVQLVESGGGLVQPGGSLRLSCAASGFTFSDYAMNWVRQAPGKGLEWVGRTRSKYNNYATYYAASVKGRFTISRDDSKNSLYLQMNSLKTEDTAVYYCVRHGNFGHSYVSWFAVWGQGTLVTVSS
VL: QAVVTQEPSLTVSPGGTVTLTCGSSTGAVTTGHYANWVQQKPGQAPRGLIGGTSNRAPWTPARFSGSLLGGKAALTLSGAQPEDEAEYYCALWYSARWVFGGGTKLTVL
B5: huSP34.6.2 Fab-HF (Fab, V domains shown)
VH: EVQLVESGGGLVQPGGSLRLSCAASGFTFSTYAMNWVRQAPGKGLEWVGRIRSKYNNYATYYADSVKGRFTISRDNSKNTLYLQMNSLRAEDTAMYYCVRHGNFGNSYVSWFAVWGQGTLVTVSS
VL: QAVVTQEPSLTVSPGGTVTLTCGSSTGAVTTSNYANWVQQKPGQAPRGLIGGTSNRAPWTPARFSGSLLGGKAALTLSGAQPEDEAEYYCALWYSNLWVFGGGTKLTVL
B6: huSP34.8.4 Fab-HF (Fab, V domains shown)
VH: EVQLVESGGGLVQPGGSLRLSCAASGFTFSDYAMNWVRQAPGKGLEWVGRTRSKYNNYATYYAASVKGRFTISRDDSKNSLYLQMNSLKTEDTAVYYCVRHGNFGHSYVSWFAVWGQGTLVTVSS
VL: QAVVTQEPSLTVSPGGTVTLTCGSSTGAVTTSHYANWVQQKPGQAPRGLIGGTSKRAPWTPARFSGSLLGGKAALTLSGAQPEDEAEYYCALWYSALWVFGGGTKLTVL
B7: huSP34.6.1 Fab-HF (Fab, V domains shown)
VH: EVQLVESGGGLVQPGGSLRLSCAASGFTFSTYAMNWVRQAPGKGLEWVGRIRSKYNNYATYYADSVKGRFTISRDNSKNTLYLQMNSLRAEDTAMYYCVRHGNFGNSYVSWFAVWGQGTLVTVSS
VL: QAVVTQEPSLTVSPGGTVTLTCRSSTGAVTTSNYANWVQQKPGQAPRGLIGGTNKRAPWTPARFSGSLIGDKAALTLSGAQPEDEAEYYCALWYSNLWVFGGGTKLTVL
B8: huSP34.6.5 Fab-HF (Fab, V domains shown)
VH: EVQLVESGGGLVQPGGSLRLSCAASGFTFSTYAMNWVRQAPGKGLEWVGRIRSKYNNYATYYADSVKGRFTISRDNSKNTLYLQMNSLRAEDTAMYYCVRHGNFGNSYVSWFAVWGQGTLVTVSS
VL: QAVVTQEPSLTVSPGGTVTLTCGSSTGAVTTGHYANWVQQKPGQAPRGLIGGTSNRAPWTPARFSGSLLGGKAALTLSGAQPEDEAEYYCALWYSARWVFGGGTKLTVL
B9: huSP34.7.1 Fab-HF (Fab, V domains shown)
VH: EVQLVESGGGLVQPGGSLRLSCAASGFTFSDYAMNWVRQAPGKGLEWVGRTRSKYNNYATYYAASVKGRFTISRDDSKNSLYLQMNSLKTEDTAVYYCVRHGNFGNSYVSWFAVWGQGTLVTVSS
VL: QAVVTQEPSLTVSPGGTVTLTCRSSTGAVTTSNYANWVQQKPGQAPRGLIGGTNKRAPWTPARFSGSLIGDKAALTLSGAQPEDEAEYYCALWYSNLWVFGGGTKLTVL
B10: mSP34 Fab-HF v2 (Fab, V domains shown)
VH: EVKLLESGGGLVQPKGSLKLSCAASGFTFNTYAMNWVRQAPGKGLEWVARIRSKYNNYATYYADSVKDRFTISRDDSQSILYLQMNNLKTEDTAMYYCVRHGNFGNSYVSWFAYWGQGTLVTVSA
VL: QAVVTQESALTTSPGETVTLTCRSSTGAVTTSNYANWVQEKPDHLFTGLIGGTNKRAPGVPARFSGSLIGDKAALTITGAQTEDEAIYFCALWYSNLWVFGGGTKLTVLG
B11: huSP34.3.8 Fab-HF (Fab, V domains shown)
VH: EVQLVESGGGLVQPGGSLRLSCAASGFTFNTYAMNWVRQAPGKGLEWVGRIRSKYNNYATYYADSVKGRFTISRDDSKNSLYLQMNSLRTEDTAVYYCVRHGNFGHSYVSWFAYWGQGTLVTVSS
VL: QAVVTQEPSLTVSPGGTVTLTCGSSTGAVTTGHYANWVQQKPGQAPRGLIGGTNKRAPGVPARFSGSLLGGKAALTISGAQPEDEAEYYCALWYSNRWVFGGGTKLTVL
notes: also called HC3+LC8
B12: huSP34.13.10 Fab-HF (Fab, V domains shown)
VH: EVQLVESGGGLVQPGGSLRLSCAASGFTFSTYAMNWVRQAPGKGLEWVGRIRSKYNNYATYYAASVKGRFTISRDDSKNTLYLQMNSLRTEDTAVYYCVRHGNFGHSYVSWFAYWGQGTLVTVSS
VL: QAVVTQPPSLTVSPGGTVTLTCGSSTGAVTTGHYANWVQQKPGQAPRGLIGGTNKRAPGVPARFSGSLSGGKAALTISGAQPEDEAEYYCALWYSNRWVFGGGTKLTVL
notes: also called HC13+LC10
B13: huSP34.13.8 Fab-HF (Fab, V domains shown)
VH: EVQLVESGGGLVQPGGSLRLSCAASGFTFSTYAMNWVRQAPGKGLEWVGRIRSKYNNYATYYAASVKGRFTISRDDSKNTLYLQMNSLRTEDTAVYYCVRHGNFGHSYVSWFAYWGQGTLVTVSS
VL: QAVVTQEPSLTVSPGGTVTLTCGSSTGAVTTGHYANWVQQKPGQAPRGLIGGTNKRAPGVPARFSGSLLGGKAALTISGAQPEDEAEYYCALWYSNRWVFGGGTKLTVL
notes: also called HC13+LC8
B14: huSP34.13.9 Fab-HF (Fab, V domains shown)
VH: EVQLVESGGGLVQPGGSLRLSCAASGFTFSTYAMNWVRQAPGKGLEWVGRIRSKYNNYATYYAASVKGRFTISRDDSKNTLYLQMNSLRTEDTAVYYCVRHGNFGHSYVSWFAYWGQGTLVTVSS
VL: QAVVTQPPSLTVSPGGTVTLTCGSSTGAVTTGHYANWVQQKPGQAPRGLIGGTNKRAPGVPARFSGSLSGGKAALTISGAQPEDEAEYYCALWYSNLWVFGGGTKLTVL
notes: also called HC13+LC9
B15: huSP34.3.10 Fab-HF (Fab, V domains shown)
VH: EVQLVESGGGLVQPGGSLRLSCAASGFTFNTYAMNWVRQAPGKGLEWVGRIRSKYNNYATYYADSVKGRFTISRDDSKNSLYLQMNSLRTEDTAVYYCVRHGNFGHSYVSWFAYWGQGTLVTVSS
VL: QAVVTQPPSLTVSPGGTVTLTCGSSTGAVTTGHYANWVQQKPGQAPRGLIGGTNKRAPGVPARFSGSLSGGKAALTISGAQPEDEAEYYCALWYSNRWVFGGGTKLTVL
notes: also called HC3+LC10

target: T1, CD3 expressed on cell-surface of primary human T cells (human, UniProt P07766 23-207; P04234 22-171); test: flow cytometry competition vs murine SP34-AF488 on human T cells, n = 1
T1 construct: also called cell-surface CD3; human CD3
Protocol: Binding of humanized SP34 Fab variants to CD3 expressed on cell-surface of primary human T cells was evaluated in a flow cytometry-based competition assay.

B1 and B2 cannot be ordered by IC50: greater than 20 µg/mL for the first, greater than 20 µg/mL for the second.

B3 and B4 cannot be ordered by IC50: greater than 20 µg/mL for the first, greater than 20 µg/mL for the second.

B5 and B6 cannot be ordered by IC50: greater than 20 µg/mL for the first, greater than 20 µg/mL for the second.

B7 and B8 cannot be ordered by IC50: greater than 20 µg/mL for the first, greater than 20 µg/mL for the second.

For B9, the IC50 was greater than 20 µg/mL.

target: T2, biotinylated CD3 epsilon:delta heterodimer protein (Amsbio AMS.CDD-H52WO) (Homo sapiens (Human), UniProt P07766 23-126; P04234 22-105); test: BLI (Octet), CD3 on SA sensor, Fab analyte
T2 construct: also called CD3 heterodimer
Protocol: (§1) The CD3 binding kinetics of the purified huSP34 Fabs were determined using OctetRed384 (Pall ForteBio, CA) biolayer interferometry (BLI). […] Streptavidin (SA) coated biosensors tips (Pall ForteBio, CA) were used to capture biotinylated CD3 epsilon: delta heterodimer and typical immobilization levels captured on the SA sensors were 1 nm which approximately translates to 300 ng/ml of captured protein. For kinetic measurements biosensors were first pre-wetted with assay buffer for 10 minutes to remove protective sucrose coating followed by the recommended regeneration conditions for standardization of the biosensor surface for the experiment. In order to load the biosensors with antigen, 300 ng/ml of biotinylated CD3 epsilon: delta heterodimer protein (Amsbio AMS.CDD-H52WO) was immobilized on the SA sensor for 900 seconds. The CD3 loaded biosensors were then blocked with 20 ug/ml biocytin (sigma) for 200 seconds and then dipped into assay buffer containing wells for 200 seconds to remove any non-specific protein or unbound CD3 heterodimer.
(§2) CD3 loaded and biocytin blocked biosensors were then transferred into fresh assay buffer for 200 seconds to collect a baseline read. Kinetic measurements for anti-CD3 Fab and bispecific antibody binding were performed by dipping the CD3-coated biosensors into wells containing multiple concentrations of Fab or Ab (0-300 nM) for 100 seconds followed by a 300 second dissociation time by transferring the biosensors into assay buffer containing wells. The CD3 loaded sensors were then regenerated for the next kinetic measurement. Biosensors were generated by removing bound Fabs or Ab from immobilized CD3 on SA biosensors. Regeneration conditions used consisted of 3 cycles of 5 seconds of dipping the biosensors in Regeneration Buffer (10 mM Glycine HCl pH 1.5) followed by Assay Buffer (10 mM sodium phosphate pH 7.4, 140 mM Sodium Chloride, 0.005% Tween20 with 0.2% BSA).

In order of rising Kd:
1. B12  1.7 nM
2. B15  2 nM
3. B13  2.5 nM
4. B14  2.7 nM
5. B11  4.4 nM
6. B10  5.2 nM

In order of rising koff:
1. B11  0.00113 s⁻¹
2. B15  0.00137 s⁻¹
3. B12  0.00204 s⁻¹
4. B13  0.00216 s⁻¹
5. B10  0.00266 s⁻¹
6. B14  0.00361 s⁻¹

In order of rising kon:
1. B11  255000 M⁻¹ s⁻¹
2. B10  532000 M⁻¹ s⁻¹
3. B15  683000 M⁻¹ s⁻¹
4. B13  933000 M⁻¹ s⁻¹
5. B12  1.36e+06 M⁻¹ s⁻¹
6. B14  1.38e+06 M⁻¹ s⁻¹

target: T2, biotinylated CD3 epsilon:delta …; test: BLI (Octet), CD3 on SA sensor, Fab analyte; remark: another data set of the same source
Protocol: as §1, §2

In order of rising Kd:
1. B11  1.9 nM
2. B15  2.3 nM

In order of rising koff:
1. B15  0.000235 s⁻¹
2. B11  0.00024 s⁻¹

In order of rising kon:
1. B11  131000 M⁻¹ s⁻¹
2. B15  142000 M⁻¹ s⁻¹
